For two molecules, Kd, koff and kon results are on record in publication PMC4275271, “Development and Characterization of a Novel Fusion Protein of a Mutated Granulocyte Colony-Stimulating Factor and Human Serum Albumin in Pichia pastoris” (PLoS ONE, 2014).

The target in the assay is T1, recombinant human G-CSF receptor (rhG-CSFR), biotinylated (human, UniProt Q99062 25-627, biotin (biotinylated, site not stated)).
T1 construct: human granulocyte colony-stimulating factor receptor
T1 sequence (looked up): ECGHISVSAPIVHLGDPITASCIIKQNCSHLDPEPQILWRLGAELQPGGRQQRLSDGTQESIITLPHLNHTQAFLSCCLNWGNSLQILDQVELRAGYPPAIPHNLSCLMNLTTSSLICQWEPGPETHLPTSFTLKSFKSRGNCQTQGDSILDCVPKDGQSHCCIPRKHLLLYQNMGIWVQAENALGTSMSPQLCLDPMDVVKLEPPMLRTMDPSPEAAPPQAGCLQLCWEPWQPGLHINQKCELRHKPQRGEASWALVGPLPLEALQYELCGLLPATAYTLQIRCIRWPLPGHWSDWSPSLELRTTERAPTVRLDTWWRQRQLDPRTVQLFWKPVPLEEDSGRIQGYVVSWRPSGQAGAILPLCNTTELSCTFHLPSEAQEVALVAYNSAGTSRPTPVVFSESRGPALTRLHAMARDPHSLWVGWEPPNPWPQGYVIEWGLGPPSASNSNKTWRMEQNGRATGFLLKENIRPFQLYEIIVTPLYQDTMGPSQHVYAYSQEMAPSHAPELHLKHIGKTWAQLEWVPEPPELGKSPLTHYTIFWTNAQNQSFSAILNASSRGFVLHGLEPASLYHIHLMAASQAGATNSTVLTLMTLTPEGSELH
The assay can be described thus: BLI; biotinylated rhG-CSFR (15 µg/ml) on Streptavidin High Binding biosensors, Octet-QK; HMG, rhG-CSF standard or mG-CSF in solution; global fitting. The note with it: both partners purified. Background: Biolayer interferometry detects binding as a change in optical thickness at a sensor tip.

Positions count from the first letter of the chain named.

B1: Human G-CSF mutant (mG-CSF) (ligand, UniProt P09919-2 31-204, looked up)
chain: APTYRASSLPQSFLLKSLEQVRKIQGDGAALQEKLCATYKLCHPEELVLLGHSLGIPWAPLSSCPSQALQLAGCLSQLHSGLFLYQGLLQALEGISPELGPTLDTLQLDVADFATTIWQQMEELGMAPALQPTQGAMPAFASAFQRRAGGVLVASHLQSFLEVSYRVLRHLAQP
notes: human granulocyte colony-stimulating factor with five substitutions; also called mutated G-CSF
Take B1: the Kd was 1.2 nM, the koff came to 1.94e-05 s⁻¹ and the on-rate constant (kon) was determined as 16200 M⁻¹ s⁻¹.

B2: recombinant human G-CSF (rhG-CSF) standard (ligand, UniProt P09919-2 31-204, looked up)
chain: B1 chain with A1T, T3L, Y4G, R5P, S17C
notes: human granulocyte colony-stimulating factor, rhG-CSF standard of Amgen; Amgen's rhG-CSF is recalled to be the 174-residue mature form with an added N-terminal Met (filgrastim); also called recombinant hG-CSF standard; source: bought: Amgen, USA
B2: the Kd worked out at 1.97 nM, the koff stood at 2.24e-05 s⁻¹ and the kon came out at 11400 M⁻¹ s⁻¹.

What is called Kd is the constant that tells how readily two partners part at equilibrium. Broadly, the koff is the rate constant with which the complex falls apart. As usually defined, the kon is the second-order rate constant of association.
